Source: publication PMC3161968

Molecular target: recombinant flagellin type B of P. aeruginosa (P. aeruginosa) (UniProt P72151)
Chain of UniProt P72151 (P72151 whole entry): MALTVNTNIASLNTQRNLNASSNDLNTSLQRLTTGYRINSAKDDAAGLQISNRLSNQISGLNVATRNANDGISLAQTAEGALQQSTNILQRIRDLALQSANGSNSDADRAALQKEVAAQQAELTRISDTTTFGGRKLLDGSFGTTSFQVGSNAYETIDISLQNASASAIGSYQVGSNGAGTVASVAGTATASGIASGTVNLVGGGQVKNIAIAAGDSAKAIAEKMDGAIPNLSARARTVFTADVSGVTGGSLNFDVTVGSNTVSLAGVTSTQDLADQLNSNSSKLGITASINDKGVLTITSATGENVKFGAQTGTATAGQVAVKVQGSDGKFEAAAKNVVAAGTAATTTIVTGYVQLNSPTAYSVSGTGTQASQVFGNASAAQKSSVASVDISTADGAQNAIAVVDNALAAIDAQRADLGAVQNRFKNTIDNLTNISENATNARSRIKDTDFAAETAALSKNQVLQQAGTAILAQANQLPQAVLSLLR

recombinant His-AprA (alkaline protease of P. aeruginosa) (from UniProt Q03023 10-479) (enzyme)
inhibition of flagellin-induced IL-8 production by HEK/TLR5 cells (30 ng/ml P. aeruginosa flagellin; the pair whose signalling is blocked is m6 with m7); AprA acts by degrading flagellin: 30 ng/mL
